Residue numbers refer to the chain shown, from its start. Numbers in names are those of the source.
B1: bacterially expressed full-length IC1A phosphorylated with PKA catalytic subunit (natural protein, rat, UniProt Q63100 1-643, looked up)
chain: MSDKSDLKAELERKKQRLAQIREEKKRKEEERKKKEADMQQKKEPVPDDSDLDRKRRETEALLQSIGISPEPPLVQPLHFLTWDTCYFHYLVPTPMSPSSKSVSTPSEAGSQDDLGPLTRTLQWDTDPSVLQLQSDSELGRRLNKLGVSKVTQVDFLPREVVSYSKETQTPLATHQSEEDEEDEEMVEPKVGHDSELENQDKKQETKEAPPRELTEEEKQQILHSEEFLIFFDRTIRVIERALAEDSDIFFDYSGRELEEKDGDVQAGANLSFNRQFYDEHWSKHRVVTCMDWSLQYPELMVASYSNNEDAPHEPDGVALVWNMKFKKTTPEYVFHCQSSVMSVCFARFHPNLVVGGTYSGQIVLWDNRSHRRTPVQRTPLSAAAHTHPVYCVNVVGTQNAHNLITVSTDGKMCSWSLDMLSTPQESMELVYNKSKPVAVTGMAFPTGDVNNFVVGSEEGTVYTACRHGSKAGIGEVFEGHQGPVTGINCHMAVGPIDFSHLFVTSSFDWTVKLWTTKHNKPLYSFEDNADYVYDVMWSPVHPALFACVDGMGRLDLWNLNSDTEVPTASVAIEGAYALNRVRWAQGGKEVAVGDSEGRIWIYDVGELAVPHNDEWTRFARTLVEIRANRADSEEEGAVELAA
modifications: phosphorylated by PKA (the paper names IC1-T59 as the sole PKA site)
B2: bacterially expressed LIC1-T213D (natural protein, rat, UniProt Q9QXU8 1-523, looked up)
chain: MAAVGRVGSFGSSPPGLASTYASGPLANELASGSGGPAAGDDEDGQNLWSRILREVSTRSRSKLPTGKNVLLLGEDGAGKTSLIRRIQGIEEYKKGRGLEYLYLNVHDEDRDDQTRCNVWILDGDLYHKGLLKFSLDALSLRDTLVMLVVDMSKPWTALDSLQKWASVVREHVDKLKIPPEEMKEMEQKLIRDFQEYVEPGEDFPASPQRRADAAQEDRDDSVVLPLGADTLTHNLGLPVLVVCTKCDAISVLEKEHDYRDEHFDFIQSHIRKFCLQYGAALIYTSVKENKNIDLVYKYIVQKLYGFPYKIPAVVVEKDAVFIPAGWDNDKKIGILHENFQTLKIEDNFEDIITKPPVRKFVHEKEIMAEDDQVFLMKLQSLLAKQPPTAAGRPVDASPRVPGGSPRTPNRSVSSNVASVSPIPAGSKKIDPNMKAGATSEGVLANFFNSLLSKKTGSPGGPGVGGSPGGGAAGASTSLPPSAKKSGQKPVLSDVHAELDRITRKPASVSPTTPPSPTEGEAS
B3: bacterially expressed full-length LIC1 phosphorylated with PKA catalytic subunit (natural protein, rat, UniProt Q9QXU8 1-523, looked up)
chain: B2 chain with D213T
modifications: phosphorylated by PKA; T213 identified as the major PKA site

Key:
[1] = target: RILP (Rab7-interacting lysosomal protein) 1-185 (UniProt Q96NA2); assay: GST-RILP 1-185 pull-down from cell lysate; conditions: reference: GFP-LIC1 wild type; sites T213
[2] = target: adenovirus serotype 5 hexon capsid subunit (Ad5 (adenovirus serotype 5), UniProt P04133 1-952); assay: pull-down
adenovirus serotype 5 hexon capsid subunit, sequence (P04133 whole entry): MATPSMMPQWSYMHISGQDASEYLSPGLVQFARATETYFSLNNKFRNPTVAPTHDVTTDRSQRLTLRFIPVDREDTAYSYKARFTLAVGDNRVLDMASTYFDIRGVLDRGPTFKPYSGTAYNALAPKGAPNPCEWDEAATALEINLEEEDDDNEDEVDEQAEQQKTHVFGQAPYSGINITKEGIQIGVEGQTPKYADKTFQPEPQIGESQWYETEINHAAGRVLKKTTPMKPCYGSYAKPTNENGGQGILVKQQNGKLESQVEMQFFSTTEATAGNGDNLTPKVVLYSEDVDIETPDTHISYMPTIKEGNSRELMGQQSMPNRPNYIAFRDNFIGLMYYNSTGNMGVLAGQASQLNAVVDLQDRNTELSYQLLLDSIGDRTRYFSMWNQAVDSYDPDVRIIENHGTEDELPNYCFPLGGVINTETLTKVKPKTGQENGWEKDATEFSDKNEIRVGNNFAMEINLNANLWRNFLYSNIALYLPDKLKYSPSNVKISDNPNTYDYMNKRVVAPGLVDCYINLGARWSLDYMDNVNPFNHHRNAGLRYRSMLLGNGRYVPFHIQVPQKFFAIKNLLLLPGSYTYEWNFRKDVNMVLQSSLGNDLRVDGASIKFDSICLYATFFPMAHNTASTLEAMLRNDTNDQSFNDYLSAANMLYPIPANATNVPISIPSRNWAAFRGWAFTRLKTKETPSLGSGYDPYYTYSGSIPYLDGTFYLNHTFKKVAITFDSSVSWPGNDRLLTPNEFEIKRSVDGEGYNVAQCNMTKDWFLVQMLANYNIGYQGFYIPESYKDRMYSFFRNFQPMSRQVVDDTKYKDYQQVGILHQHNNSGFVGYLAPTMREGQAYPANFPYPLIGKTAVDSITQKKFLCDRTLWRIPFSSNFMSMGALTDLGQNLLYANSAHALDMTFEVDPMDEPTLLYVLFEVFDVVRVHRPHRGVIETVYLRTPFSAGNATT

Row | Molecule | binding against the reference [1] | binding result [2]
1 | dynein light intermediate chain 1 (LIC1) (from UniProt Q9QXU8) GFP-LIC1-T213A | stronger | 
2 | B1 |  | binds
3 | B2 |  | binds
4 | B3 |  | binds
